According to article PMC4114212 (Science signaling, 2012):
Read-outs that look alike come from different tables or passages of the source. One block for each binder: values may come before it.

How the values were obtained:
[1] = target: T1, TRAF domain of mouse TRAF3 (residues 376 through the C terminus), wild type (mouse, UniProt Q60803 376-567); assay: pull-down
T1 sequence (looked up): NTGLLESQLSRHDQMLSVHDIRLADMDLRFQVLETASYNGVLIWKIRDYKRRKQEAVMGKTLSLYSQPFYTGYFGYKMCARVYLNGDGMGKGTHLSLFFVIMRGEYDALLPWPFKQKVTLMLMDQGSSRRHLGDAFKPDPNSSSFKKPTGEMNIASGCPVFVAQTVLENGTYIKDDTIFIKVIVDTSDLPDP

crystal structure [2] = target: the molecule itself; assay: crystal structure
crystal structure [3] = target: the molecule itself; assay: crystal structure; remark: listed apart in the source
[4] = target: T2, Cardif peptide (residues 138 to 158) used for cocrystallization with TRAF3; assay: crystal structure
T2 peptide: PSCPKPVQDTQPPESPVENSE

binding result [1]: binds
B1: GST-tagged Cardif peptide, residues 138 to 153 (encompasses T2BM) (peptide)
chain: PSCPKPVQDTQPPESP

B2: TRAF domain of TRAF5, crystallised construct (residues 381 through the C-terminal end) (domain or fragment, mouse, UniProt P70191 381-558, looked up)
chain: NIHKAQLNKNEERFKQLEGACYSGKLIWKVTDYRVKKREAVEGHTVSVFSQPFYTSRCGYRLCARAYLNGDGSGKGTHLSLYFVVMRGEFDSLLQWPFRQRVTLMLLDQSGKKNHIVETFKADPNSSSFKRPDGEMNIASGCPRFVSHSTLENSKNTYIKDDTLFLKVAVDLTDLEDL
stoichiometry N (crystal structure [2]): 3

stoichiometry N [4]: 1
B3: recombinant TRAF domain of TRAF3 (residues 376 to 565), shortened by trypsin for crystallisation (domain or fragment, mouse, UniProt Q60803 376-565, looked up)
chain: NTGLLESQLSRHDQMLSVHDIRLADMDLRFQVLETASYNGVLIWKIRDYKRRKQEAVMGKTLSLYSQPFYTGYFGYKMCARVYLNGDGMGKGTHLSLFFVIMRGEYDALLPWPFKQKVTLMLMDQGSSRRHLGDAFKPDPNSSSFKKPTGEMNIASGCPVFVAQTVLENGTYIKDDTIFIKVIVDTSDLP
stoichiometry N (crystal structure [3]): 3
